Measured values: the supplement of paper PMC9732359
± gives the uncertainty stated by the source.

Assay: protein stability index of a GFP-peptide fusion (yeast GPS) (PSI 1-4); higher = more stable; sorted into four equal gates, so the index is relative within each strain
Settings: doa10∆
Method in brief: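 Tiled 17-residue peptides from yeast proteins were fused downstream of GFP on a plasmid that also expresses Cherry, and the pooled library was carried in yeast. Mid-log cultures grown in leucine-free medium were sorted into four equal gates by GFP/Cherry fluorescence ratio. Plasmids from each gate were PCR-amplified and Illumina-sequenced, and reads were assigned to strains by barcodes. Each peptide's protein stability index is the sum, over gates, of the gate's read frequency multiplied by its gate number.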

Row | Sequence | protein stability index
1 | NKQPRNESFNRRISSMP [YAR002W/NUP60] | 2.62 ± 0.068
2 | NKSTSSEAEYSKDIETL [YIL149C/MLP2] | 3.19 ± 0.089
3 | NKTAHLSIPGKSTPEGT [SNU114] | 2.94 ± 0.065
4 | NKTKAVDNTVPSTTLFN [YOR098C/NUP1] | 2.84 ± 0.087
5 | NKVVVNLNDAGLALQLF [RPN2] | 2.28 ± 0.084
6 | NLCKIIEPFECVEISHI [RPN6] | 2.27 ± 0.12
7 | NLFKINSIDVPIRINST [YMR129W/POM152] | 1.89 ± 0.044
8 | NLGEYYAQIGDKDNAEK [RPN7] | 1.92 ± 0.056
9 | NLGIPKIAYRGVKDCQE [SSN2] | 1.49 ± 0.2
10 | NLGRAVFWEIQSRVPTS [PRP8] | 2.05 ± 0.1
11 | NLHAEGWPKLQLGPQTP [ECM29] | 2.43 ± 0.18
12 | NLLPKKSAKTAKASQEL [HTA2] | 2.92 ± 0.092
13 | NLLVLRGKNEIIQNAQR [RPO21] | 1.56 ± 0.11
14 | NLNTDKLKNNASRSQLE [YJL039C/NUP192] | 2.22 ± 0.13
15 | NLNVYIQVFEKPFLKKT [CDC53] | 2.2 ± 0.071
16 | NLPPHYALFLKALRRKI [SSN2] | 2.15 ± 0.11
17 | NLQQDKTNFQDVILDYQ [REC8] | 3.07 ± 0.069
18 | NLSSTPMETLLSGLSAD [YML031W/NDC1] | 2.42 ± 0.075
19 | NLTPANILNMSMNNDFQ [PGD1] | 2.86 ± 0.11
20 | NMEIRNLRLKILTIIEE [GRR1] | 1.62 ± 0.065
21 | NMNNGGKELDSLDLNNL [PGD1] | 3.06 ± 0.11
22 | NMTTIADRNDDDEGSFA [SRB6] | 3.72 ± 0.17
23 | NMVRNNNNNTIDESMPD [GRR1] | 2.83 ± 0.057
24 | NNETEQLKAEEKKILNQ [SMC1] | 3.11 ± 0.12
25 | NNGDKDHLKLVSLFSNL [YIL149C/MLP2] | 2.42 ± 0.09
26 | NNIEENLRLLNSIDSTS [ECM29] | 3.21 ± 0.06

Row | Sequence | protein stability index
27 | NNNGLPQNGNINNNINI [GAL11] | 3.13 ± 0.05
28 | NNNGNSAASKKKKNKNK [SRP21] | 3.09 ± 0.092
29 | NNNSSNEKEQLSFINPK [SEC65] | 2.83 ± 0.045
30 | NNPKIQTKDSVKEIVLP [IRR1] | 3.17 ± 0.07
31 | NNPKVKTSKRTKRWYKN [RPS11A] | 3.36 ± 0.091
32 | NNPQVVNAITVAQQQVQ [SNF5] | 1.69 ± 0.049
33 | NNQSKEKADYEDEMMHE [RPN12] | 2.63 ± 0.074
34 | NNTHVGRQFCNRLSRIH [YLR018C/POM34] | 2.34 ± 0.12
35 | NNTNTDNVSGLTRNAPL [SNF2] | 3.06 ± 0.069
36 | NPFTSATSSTNANAGLF [YOR098C/NUP1] | 2.72 ± 0.077
37 | NPYNIVPQGKIVALTNA [SMC3] | 2.77 ± 0.14
38 | NQIWNIALNLASKKFGK [SSN2] | 2.7 ± 0.13
39 | NQLTESASHFEQYTKKI [YJL041W/NSP1] | 2.28 ± 0.086
40 | NQNSSTGAGAFGTGQST [YJL041W/NSP1] | 2.33 ± 0.058
41 | NRPNTLDPALLRPGRID [RPT1] | 2.72 ± 0.14
42 | NRQQKKRRFDPSSSDSN [RRP6] | 2.77 ± 0.056
43 | NRQTLMFTATMTPVIEK [PRP28] | 2.56 ± 0.061
44 | NRQVMHKMGVERSSKRL [SIR3] | 3.23 ± 0.17
45 | NRSEQNGQEQQGPVKNT [RGR1] | 3.26 ± 0.16
46 | NSCFSDGSQQNLQQDKT [REC8] | 2.77 ± 0.09
47 | NSDDIIDVDMDASPAPS [SRB5] | 2.71 ± 0.051
48 | NSDDILSLHENYPQDEI [POP1] | 2.94 ± 0.06
49 | NSDKPRDVYVFDKVEVQ [DIS3] | 2.96 ± 0.058
50 | NSESTTQGGNVNLDNTA [RPT5] | 3.53 ± 0.11
51 | NSFYYTSLLYLSTLEPS [RPN9] | 1.82 ± 0.05
52 | NSGKQQYYRGLPLYEKN [SWP82] | 2.56 ± 0.089

Row | Sequence | protein stability index
53 | NSIDINYKGLPKKYKEN [SMC1] | 2.91 ± 0.068
54 | NSIKNVPPILIILPLDN [SSN2] | 2.01 ± 0.21
55 | NSINNNNIKNGTNNISQ [YDL088C/ASM4] | 2.79 ± 0.044
56 | NSITKDNIDYAPMRLAT [YJL039C/NUP192] | 2.58 ± 0.048
57 | NSLKETLQDFHLIFSNA [SNF2] | 2.85 ± 0.072
58 | NSNINTLTASPDGTLIA [ASC1] | 2.88 ± 0.078
59 | NSNTTNQNSSTGAGAFG [YJL041W/NSP1] | 3.04 ± 0.053
60 | NSRGKFDDACNQIWNIA [SSN2] | 3.04 ± 0.15
61 | NSSEEDKKKGQNVTSET [ITC1] | 3.5 ± 0.14
62 | NSSTSPAPSIPSTGFKF [YLR335W/NUP2] | 2.38 ± 0.04
63 | NSTATMQHNPLAGKRGP [PGD1] | 3.05 ± 0.047
64 | NSTSKNTLLQQQNYSKV [SWI1] | 2.33 ± 0.067
65 | NTEITQKSSKENIENEE [ECM29] | 3.05 ± 0.082
66 | NTFQKTVEPVYQMHIKT [FAS1] | 1.68 ± 0.038
67 | NTHNKSTKRVTKHPSLK [POP7] | 2.6 ± 0.07
68 | NTILNSSSDFRLHYYPK [BRR2] | 2.75 ± 0.054
69 | NTKVPVDIVNQWFLQYQ [YML103C/NUP188] | 1.78 ± 0.044
70 | NTNPSPLKTQTKNGTPN [GAL11] | 2.91 ± 0.059
71 | NTPLSLPTRGTLESLEN [COR1] | 3.21 ± 0.12
72 | NTRKNMSISLESSKALA [DIS3] | 1.96 ± 0.082
73 | NTTKTADTKAPTFTFGS [YLR335W/NUP2] | 3.36 ± 0.08
74 | NTVMLQGIFKNSSNYFG [AAR2] | 2.21 ± 0.15
75 | NTVPQVTNFNSTNEDQN [SRB5] | 2.83 ± 0.09
76 | NVAHRIKEDIKKQPSIL [SNF2] | 2.9 ± 0.15
77 | NVDVCVMEIGKDAEYLR [PUP1] | 2.84 ± 0.068
78 | NVFTPEISSQIEILVKD [RRI2] | 1.65 ± 0.1

Row | Sequence | protein stability index
79 | NVGDNNSTASSSNISPE [ARP7] | 2.83 ± 0.089
80 | NVHGSLEPFLLMLEDTD [BRR2] | 2.47 ± 0.077
81 | NVKTSVSQLYRISEKSV [RPO31] | 3.04 ± 0.11
82 | NVLVTMPVAPTMEVKSF [YMR129W/POM152] | 1.54 ± 0.068
83 | NVRALYMRLWEINETEF [RMP1] | 3 ± 0.24
84 | NVSFVLPDEKSDAMSID [YCG1] | 3.31 ± 0.072
85 | NVTFGSKKDPRILKNVS [YMR153W/NUP53] | 2.81 ± 0.053
86 | NVTSSGDHNKLRSTIAN [YML103C/NUP188] | 2.43 ± 0.051
87 | NWIKPSDSEIPPLLVYK [PRP8] | 2.16 ± 0.065
88 | NWLSIFNDFSNIKTSEW [REC8] | 2.67 ± 0.082
89 | NWYKSKKKAFTKYSAKY [RPL3] | 3.23 ± 0.16
90 | NYDIITASSLAHDYNND [YML103C/NUP188] | 2.64 ± 0.063
91 | NYHPNASITPYKLVNKN [RPN4] | 1.84 ± 0.063
92 | PAGFTHKLSNWLFGWND [YDL088C/ASM4] | 2.86 ± 0.073
93 | PAGHAGNPTNISSPIVA [YDL088C/ASM4] | 2.52 ± 0.068
94 | PAIPPVIDLEKIKFDES [BRR2] | 2.85 ± 0.093
95 | PANHLQSDFCLSWCPSR [YGL100W/SEH1] | 1.8 ± 0.18
96 | PCVEDGFVIQDRETALD [RPB2] | 3.17 ± 0.088
97 | PDAQNELPKFILSDSPL [DIS3] | 2.87 ± 0.048
98 | PDCKIKIAHGTTTLAFR [PRE2] | 2.64 ± 0.077
99 | PDDEKFTDENTIVLSLN [RPC40] | 3.46 ± 0.13
100 | PDIADIPRTFRTPVPST [SNF5] | 2.12 ± 0.093
101 | PDKDYLLSIPISCPLIG [FAS1] | 1.28 ± 0.19
102 | PDLQFIVISLKNTMFEK [SMC1] | 2.83 ± 0.082
103 | PDPNFENSIGYNNRKCW [PRP8] | 3.02 ± 0.098
104 | PDRQSMDSRVAHGNILI [SRB5] | 3.14 ± 0.09
